Ends that are not written are not given here.
T1: TFPI C-terminal tail peptide
T1 construct: The limits are therefore uncertain; also called TFPI peptide
T1 peptide: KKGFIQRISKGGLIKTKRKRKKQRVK

B1: Oregon Green 488 maleimide-modified BR (OG488-BR) (peptide)
peptide: C(Oregon Green 488 maleimide)SRAWGESTPLANKPGKQSGHPKFPRVRHKSLQVRQDGGKSRLKKSQFLIKTRKKKKEK
notes: also called fluorescently labeled FVBR
B2: FV-810 (FV-DT), Factor V with amino acids 811-1491 deleted from the B-domain (other, human, UniProt P12259 29-838, looked up)
chain: AQLRQFYVAAQGISWSYRPEPTNSSLNLSVTSFKKIVYREYEPYFKKEKPQSTISGLLGPTLYAEVGDIIKVHFKNKADKPLSIHPQGIRYSKLSEGASYLDHTFPAEKMDDAVAPGREYTYEWSISEDSGPTHDDPPCLTHIYYSHENLIEDFNSGLIGPLLICKKGTLTEGGTQKTFDKQIVLLFAVFDESKSWSQSSSLMYTVNGYVNGTMPDITVCAHDHISWHLLGMSSGPELFSIHFNGQVLEQNHHKVSAITLVSATSTTANMTVGPEGKWIISSLTPKHLQAGMQAYIDIKNCPKKTRNLKKITREQRRHMKRWEYFIAAEEVIWDYAPVIPANMDKKYRSQHLDNFSNQIGKHYKKVMYTQYEDESFTKHTVNPNMKEDGILGPIIRAQVRDTLKIVFKNMASRPYSIYPHGVTFSPYEDEVNSSFTSGRNNTMIRAVQPGETYTYKWNILEFDEPTENDAQCLTRPYYSDVDIMRDIASGLIGLLLICKSRSLDRRGIQRAADIEQQAVFAVFDENKSWYLEDNINKFCENPDEVKRDDPKFYESNIMSTINGYVPESITTLGFCFDDTVQWHFCSVGTQNEILTIHFTGHSFIYGKRHEDTLTLFPMRGESVTVTMDNVGTWMLTSMNSSPRSKKLRLKFRDVKCIPDDDEDSYEIFEPPESTVMATRKMHDRLEPEDEESDADYDYQNRLAAALGIRSFRNSSLNQEEEEFNLTALALENGTEFVSSNTDIIVGSNYSSPSNISKFTVNNLAEPQKAPSHQQATTAGSPLRHLIGKNSVLNSSTAEHSSPYSEDPIEDTDYIEIIPKEEVQSSEDDYAEIDYVPYDDPYKTDVRTNINSSRDPDNIAAWYLRSNNGNRRNYYIAAEEISWDYSEFVQRETDIEDSDDIPEDTTYKKVVFRKYLDSTFTKRDPRGEYEEHLGILGPIIRAEVDDVIQVRFKNLASRPYSLHAHGLSYEKSSEGKTYEDDSPEWFKEDNAVQPNSSYTYVWHATERSGPESPGSACRAWAYYSAVNPEKDIHSGLIGPLLICQKGILHKDSNMPMDMREFVLLFMTFDEKKSWYYEKKSRSSWRLTSSEMKKSHEFHAINGMIYSLPGLKMYEQEWVRLHLLNIGGSQDIHVVHFHGQTLLENGNKQHQLGVWPLLPGSFKTLEMKASKPGWWLLNTEVGENQRAGMQTPFLIMDRDCRMPMGLSTGIISDSQIKASEFLGYWEPRLARLNNGGSYNAWSVEKLAAEFASKPWIQVDMQKEVIITGIQTQGAKHYLKSCYTTEFYVAYSSNQINWQIFKGNSTRNVMYFNGNSDASTIKENQFDPPIVARYIRISPTRAYNRPTLRLELQGCEVNGCSTPLGMENGKIENKQITASSFKKSWWGDYWEPFRARLNAQGRVNAWQAKANNNKQWLEIDLLKIKKITAIITQGCKSLSSEMYVKSYTIHYSEQGVEWKPYRLKSSMVDKIFEGNTNTKGHVKNFFNPPIISRFIRVIPKTWNQSIALRLELFGCDIY
notes: range 1-810;range 1492-2196; Single-chain cofactor-like variant; All residue numbers count on mature Factor V (add 28 for the precursor)
B3: Factor V basic region peptide (FVBR), amino acids 951-1008 of Factor V (peptide)
peptide: SRAWGESTPLANKPGKQSGHPKFPRVRHKSLQVRQDGGKSRLKKSQFLIKTRKKKKEK
notes: Expressed in E. coli as a SUMO fusion; also called FV basic peptide; BR peptide

How the values were obtained:
FV-810^R1545Q = target: T2, FV-810^R1545Q (human, UniProt P12259 29-838; P12259 1520-2224); experiment: fluorescence anisotropy; buffer-pretreated protein titrated into 30 nM OG488-BR, 50 uM PCPS; n=1 assumed
T2 construct: range 1-810;range 1492-2196; mature numbering
T2 sequence (P12259 other isoform, or with tags, fused parts or gaps R1545Q R1545Q): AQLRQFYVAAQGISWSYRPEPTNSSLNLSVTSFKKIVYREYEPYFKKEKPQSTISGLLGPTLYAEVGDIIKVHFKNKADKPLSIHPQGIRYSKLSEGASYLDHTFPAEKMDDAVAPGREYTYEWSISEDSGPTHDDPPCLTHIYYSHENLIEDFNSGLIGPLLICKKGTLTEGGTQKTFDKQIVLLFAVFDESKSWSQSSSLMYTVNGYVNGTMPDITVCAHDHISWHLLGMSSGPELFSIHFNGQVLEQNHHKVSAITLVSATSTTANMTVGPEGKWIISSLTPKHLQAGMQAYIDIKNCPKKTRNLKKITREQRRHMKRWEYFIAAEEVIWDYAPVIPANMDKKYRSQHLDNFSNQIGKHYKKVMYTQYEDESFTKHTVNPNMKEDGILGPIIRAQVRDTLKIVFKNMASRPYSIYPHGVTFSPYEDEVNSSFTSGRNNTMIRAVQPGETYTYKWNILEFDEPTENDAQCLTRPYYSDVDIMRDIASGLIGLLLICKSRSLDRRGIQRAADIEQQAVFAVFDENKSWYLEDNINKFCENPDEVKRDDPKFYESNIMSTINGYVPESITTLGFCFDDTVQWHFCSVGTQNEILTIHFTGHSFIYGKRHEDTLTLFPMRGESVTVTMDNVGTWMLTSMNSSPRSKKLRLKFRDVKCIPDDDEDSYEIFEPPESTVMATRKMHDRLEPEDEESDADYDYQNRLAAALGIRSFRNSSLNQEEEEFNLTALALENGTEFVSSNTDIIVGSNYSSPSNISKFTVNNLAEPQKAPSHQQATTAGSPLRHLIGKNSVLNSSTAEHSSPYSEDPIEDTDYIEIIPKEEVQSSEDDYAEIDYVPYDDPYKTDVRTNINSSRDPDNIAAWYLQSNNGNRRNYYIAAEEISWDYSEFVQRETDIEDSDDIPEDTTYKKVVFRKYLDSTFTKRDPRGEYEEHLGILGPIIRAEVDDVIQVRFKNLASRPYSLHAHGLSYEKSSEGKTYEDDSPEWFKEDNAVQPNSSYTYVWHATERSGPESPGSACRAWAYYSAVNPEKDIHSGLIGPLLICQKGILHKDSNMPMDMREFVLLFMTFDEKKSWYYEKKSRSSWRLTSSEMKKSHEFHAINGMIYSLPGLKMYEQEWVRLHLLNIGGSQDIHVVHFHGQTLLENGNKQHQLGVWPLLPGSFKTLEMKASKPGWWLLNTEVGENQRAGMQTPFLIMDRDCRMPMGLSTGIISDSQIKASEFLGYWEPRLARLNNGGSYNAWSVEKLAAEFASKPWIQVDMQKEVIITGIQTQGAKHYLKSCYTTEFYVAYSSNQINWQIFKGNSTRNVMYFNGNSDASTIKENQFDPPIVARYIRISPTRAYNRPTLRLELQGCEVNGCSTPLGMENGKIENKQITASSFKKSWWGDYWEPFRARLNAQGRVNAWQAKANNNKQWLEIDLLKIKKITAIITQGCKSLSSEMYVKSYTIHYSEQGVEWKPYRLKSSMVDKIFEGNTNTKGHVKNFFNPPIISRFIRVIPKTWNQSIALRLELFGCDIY
Protocol: (§1) FV-810, FV-810^R709Q (▴), FV-810^R1545Q (♦), and FV-810^QQ (▪) were pretreated with buffer (FIG. 14A) or thrombin (FIG. 14B).
(§2) Steady-state fluorescence anisotropy was measured at 25° C. in a PTI Quanta-Master™ fluorescence spectrophotometer (Photon Technology International, Birmingham, N.J.) using excitation and emission wavelengths of 480 and 520 nm, respectively, with long-pass filters (KV500, CVI Melles Griot) in the emission beam.

FV-810^QQ [1] = target: T3, FV-810^QQ (human, UniProt P12259 29-838; P12259 1520-2224); experiment: as above
T3 construct: range 1-810;range 1492-2196; Both thrombin sites (Arg709 and Arg1545) changed to Gln; the assay field says where thrombin pretreatment was used
T3 sequence (P12259 other isoform, or with tags, fused parts or gaps): as the sequence (P12259 other isoform, or with tags, fused parts or gaps R1545Q R1545Q) above, with R709Q counted along it
Protocol: as §1, §2

[2] = target: B2; experiment: as above
Protocol: as §1, §2

FV-810^R709Q = target: T4, FV-810^R709Q (human, UniProt P12259 29-838; P12259 1520-2224); experiment: as above
T4 construct: range 1-810;range 1492-2196; mature numbering
T4 sequence (P12259 other isoform, or with tags, fused parts or gaps R709Q R709Q): as the sequence (P12259 other isoform, or with tags, fused parts or gaps R1545Q R1545Q) above, with R709Q, Q864R counted along it
Protocol: as §1, §2

[3] = target: B2; experiment: fluorescence anisotropy; FV-810 titrated into 20 or 40 nM OG488-BR, 50 uM PCPS, 25 C
Protocol: (§3) Control experiments were performed by titrating FV-810 into buffer containing 10 mM EDTA (X) or by titrating rFVa (▴).
as §2
(§4) Data were analyzed by nonlinear least squares regression analysis using the Marquardt algorithm (Bevington et al. (1992) Data Reduction and Error Analysis for the Physical Sciences, pp. 141-167, McGraw-Hill, New York), and the quality of each fit was assessed as described (Straume et al. (1992) Methods Enzymol., 210:87-105).

[4] = target: T5, FV-810^R1545Q pretreated with thrombin (human, UniProt P12259 29-737; P12259 738-838; P12259 1520-2224); experiment: fluorescence anisotropy; thrombin-pretreated protein titrated into 30 nM OG488-BR, 50 uM PCPS; n=1 assumed
T5 construct: Cleaved only at Arg709: B-domain remnant stays tethered to the light chain; also called thrombin-cleaved FV-810^R1545Q
T5 sequence (P12259 other isoform, or with tags, fused parts or gaps R1545Q R1545Q, chain 2 of 2, one chain of several): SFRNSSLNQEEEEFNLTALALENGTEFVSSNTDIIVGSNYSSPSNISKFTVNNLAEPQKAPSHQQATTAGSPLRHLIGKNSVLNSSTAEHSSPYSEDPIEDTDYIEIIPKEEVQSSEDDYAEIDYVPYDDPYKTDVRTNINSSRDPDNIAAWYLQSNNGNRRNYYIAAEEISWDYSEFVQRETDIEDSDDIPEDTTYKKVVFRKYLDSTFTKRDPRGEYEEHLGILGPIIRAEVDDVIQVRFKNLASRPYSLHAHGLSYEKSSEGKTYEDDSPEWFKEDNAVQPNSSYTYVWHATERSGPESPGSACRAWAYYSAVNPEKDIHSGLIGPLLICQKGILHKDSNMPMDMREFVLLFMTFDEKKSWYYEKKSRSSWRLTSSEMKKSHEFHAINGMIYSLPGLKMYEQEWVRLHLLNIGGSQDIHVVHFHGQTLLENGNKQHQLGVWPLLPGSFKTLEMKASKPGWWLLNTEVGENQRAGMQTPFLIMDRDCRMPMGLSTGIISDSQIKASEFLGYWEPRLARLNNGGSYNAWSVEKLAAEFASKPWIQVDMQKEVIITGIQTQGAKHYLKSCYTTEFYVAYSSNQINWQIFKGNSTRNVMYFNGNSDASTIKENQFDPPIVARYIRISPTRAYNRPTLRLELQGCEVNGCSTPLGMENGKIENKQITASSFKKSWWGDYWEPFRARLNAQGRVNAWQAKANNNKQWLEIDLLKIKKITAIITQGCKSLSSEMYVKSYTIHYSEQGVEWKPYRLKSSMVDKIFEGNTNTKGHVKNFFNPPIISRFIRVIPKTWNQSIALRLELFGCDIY
Protocol: as §1, §2

FV-810^QQ [5] = target: T3, FV-810^QQ; experiment: as above
Protocol: as §1, §2

[6] = target: T6, Fluorescently-labeled, active site-blocked FXa (UniProt P00742 41-179; P00742 235-488, fluorescently-labeled, active site-blocked (label and blocker not named)); experiment: fluorescence anisotropy; FVDT titrated into fluorescently labeled, active site-blocked FXa on PCPS liposomes, buffer only (no FVBR); concentration of labeled FXa not given
T6 construct: also called fluorescently labeled FXa
T6 sequence (P00742 41-179 limits assumed, chain 1 of 2): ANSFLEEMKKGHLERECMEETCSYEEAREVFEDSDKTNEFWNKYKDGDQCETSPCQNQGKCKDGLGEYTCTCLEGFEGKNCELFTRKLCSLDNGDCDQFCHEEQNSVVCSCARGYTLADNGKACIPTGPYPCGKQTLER
T6 sequence (P00742 235-488 limits assumed, chain 2 of 2): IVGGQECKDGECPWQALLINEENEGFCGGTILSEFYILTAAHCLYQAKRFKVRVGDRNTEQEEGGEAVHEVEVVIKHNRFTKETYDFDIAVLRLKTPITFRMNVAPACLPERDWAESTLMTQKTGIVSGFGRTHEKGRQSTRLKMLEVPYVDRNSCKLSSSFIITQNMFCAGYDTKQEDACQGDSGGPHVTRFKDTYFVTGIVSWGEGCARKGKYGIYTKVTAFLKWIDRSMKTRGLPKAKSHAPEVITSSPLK

[7] = target: B1; experiment: fluorescence anisotropy; FVDT titrated into fluorescently labeled FVBR (probe concentration not given)
[8] = target: T1, TFPI C-terminal tail peptide; experiment: fluorescence anisotropy; FVDT titrated into the TFPI peptide (label and probe concentration not stated)
[9] = target: B1; experiment: fluorescence anisotropy; FV-810 titrated into 20 nM OG488-BR with 50 uM PCPS, 25 C
Protocol: as §3, §2

[10] = target: B1; experiment: fluorescence anisotropy; FV-810 titrated into 40 nM OG488-BR with 50 uM PCPS, 25 C
Protocol: as §3, §2

[11] = target: B1; experiment: fluorescence anisotropy; buffer-pretreated FV-810 titrated into 30 nM OG488-BR with 50 uM PCPS
Protocol: as §1, §2

[12] = target: B2; experiment: fluorescence anisotropy, displacement; FVBR titrated into labeled active site-blocked FXa plus FVDT on PCPS liposomes; displaced ligand: labeled FXa
[13] = target: B2; experiment: fluorescence anisotropy, displacement; unlabeled BR titrated into 30 nM OG488-BR, 20 nM FV-810, 50 uM PCPS; competitor: OG488-BR [inset]
Protocol: as §3

[14] = target: B2; experiment: global fit of prethrombin-2 activation rates (1-50 nM FXa, 0-1000 nM BR, 5 nM FV-810, 50 uM PCPS) to a tight, competitive binding model
Protocol: as §4

[15] = target: B2; experiment: fluorescence anisotropy, displacement; human BR titrated into 30 nM OG488-BR, 20 nM FV-810, 50 uM PCPS, 25 C; competitor: OG488-BR
[16] = target: B2; experiment: fluorescence anisotropy displacement of OG488-BR; 30 nM OG488-BR, 20 nM FV-810, 50 uM PCPS; stoichiometry of 1 assumed
[17] = target: B2; experiment: fluorescence anisotropy displacement; unlabeled BR titrated into 30 nM OG488-BR, 20 nM FV-810, 50 uM PCPS
Protocol: as §3, §4

Work on B1 yielded a Kd (FV-810^R1545Q) of 2 nM, a Kd (FV-810^QQ [1]) of 0.31 nM and a Kd [2] of 2.1 nM. For the same binder, the Kd (FV-810^R709Q) was 7.1 nM, the Kd [3] was 2.07 nM and the Kd [4] was 30.3 nM. It also gave a Kd (FV-810^QQ [5]) of 1.3 nM.

In the case of B2, the “EC50 (read off the curve)” value [6] is reported as 6 to 8 nM, the “EC50 (read off the curve)” value [7] is reported as 10 to 15 nM and the “EC50 (read off the curve)” value [8] is reported as ~10 nM. For the same binder, the “EC50 (read off the curve)” value [9] was ~8 nM, the “EC50 (read off the curve)” value [10] was ~10 nM and the “EC50 (read off the curve)” value [11] was 10 to 15 nM.

In the case of B3, the “IC50 (read off the curve)” value [12] is reported as ~90 nM, the “IC50 (read off the curve)” value [13] is reported as ~50 nM and the Kd [14] is reported as 34.2 nM. For the same binder, the “IC50 (read off the curve)” value [15] was ~50 nM, the Kd [16] was 2.2 nM and the Kd [17] was 2.1 nM.
